# Paper PMC5366289 (Biochemistry, 2016)
# Like-named read-outs stand apart in the source and are kept apart here.
# B1: colicin E1 T-domain peptide T57–140 (domain or fragment)
# chain: WSTAQLKKTQAEQAARAKAAAEAQAKAKANRDALTQRLKDIVNEALRHNASRTPSATELAHANNAAMQAEDERLRLAKAEEKAR
# B2: colicin E1 T-domain peptide T1–120 (domain or fragment, UniProt P02978 1-120, looked up)
# chain: METAVAYYKDGVPYDDKGQVIITLLNGTPDGSGSGGGGGKGGSKSESSAAIHATAKWSTAQLKKTQAEQAARAKAAAEAQAKAKANRDALTQRLKDIVNEALRHNASRTPSATELAHANN
# B3: 41–120 ^b: colicin E1 T-domain peptide, residues 41–120 (peptide, UniProt P02978 41-120, looked up, fragment)
# chain: GGSKSESSAAIHATAKWSTAQLKKTQAEQAARAKAAAEAQAKAKANRDALTQRLKDIVNEALRHNASRTPSATELAHANN
# B4: colicin E3 peptide T1–83: naturally disordered T1–83 peptide of colicin E3 used for zero helical content (peptide, UniProt P00646 1-83, looked up, fragment)
# chain: MSGGDGRGHNTGAHSTSGNINGGPTGLGVGGGASDGSGWSSENNPWGGGSGSGIHWGGGSGHGNGGGNGNSGGGSGTGGNLSA
# B5: 1–100 ^b: colicin E1 T-domain peptide, residues 1–100 (peptide)
# chain: METAVAYYKDGVPYDDKGQVIITLLNGTPDGSGSGGGGGKGGSKSESSAAIHATAKWSTAQLKKTQAEQAARAKAAAEAQAKAKANRDALTQRLKDIVNE
# B6: 1–81 ^c: colicin E1 T-domain peptide, residues 1–81 (peptide, UniProt P02978 1-81, looked up, fragment)
# chain: METAVAYYKDGVPYDDKGQVIITLLNGTPDGSGSGGGGGKGGSKSESSAAIHATAKWSTAQLKKTQAEQAARAKAAAEAQA
# B7: colicin E1 T-domain peptide T57–190 (domain or fragment)
# chain: WSTAQLKKTQAEQAARAKAAAEAQAKAKANRDALTQRLKDIVNEALRHNASRTPSATELAHANNAAMQAEDERLRLAKAEEKARKEAEAAEKAFQEAEQRRKEIEREKAETERQLKLAEAEEKRLAALSEEAKA
# B8: 100–190 ^b: colicin E1 T-domain peptide, residues 100–190 (peptide, UniProt P02978 100-190, looked up, fragment)
# chain: EALRHNASRTPSATELAHANNAAMQAEDERLRLAKAEEKARKEAEAAEKAFQEAEQRRKEIEREKAETERQLKLAEAEEKRLAALSEEAKA
# B9: 41–140 ^b: colicin E1 T-domain peptide, residues 41–140 (peptide, UniProt P02978 41-140, looked up, fragment)
# chain: GGSKSESSAAIHATAKWSTAQLKKTQAEQAARAKAAAEAQAKAKANRDALTQRLKDIVNEALRHNASRTPSATELAHANNAAMQAEDERLRLAKAEEKAR
# B10: colicin E1 T-domain peptide T57–120 (domain or fragment, UniProt P02978 57-120, looked up)
# chain: WSTAQLKKTQAEQAARAKAAAEAQAKAKANRDALTQRLKDIVNEALRHNASRTPSATELAHANN
# B11: 81–141 ^c: colicin E1 T-domain peptide, residues 81–141 (peptide, UniProt P02978 81-141, looked up, fragment)
# chain: AKAKANRDALTQRLKDIVNEALRHNASRTPSATELAHANNAAMQAEDERLRLAKAEEKARK
# B12: colicin E1 T-domain peptide T1–140 (domain or fragment, UniProt P02978 1-140, looked up)
# chain: METAVAYYKDGVPYDDKGQVIITLLNGTPDGSGSGGGGGKGGSKSESSAAIHATAKWSTAQLKKTQAEQAARAKAAAEAQAKAKANRDALTQRLKDIVNEALRHNASRTPSATELAHANNAAMQAEDERLRLAKAEEKAR
# What was measured:
# [1] = Far-UV circular dichroism, helical content of T-domain peptides; assay type: physicochemical; settings: for secondary structure, in words: far-UV CD, 50 mM sodium phosphate; for no. of residues, helix: from helical content by far-UV CD, DichroWeb, tags assumed unordered; for no. of residues, unordered: total number in peptide excluding tags minus residues in helices
# [2] = target: TolC (Escherichia coli, UniProt P02930); settings: for occlusion of TolC channels (Figure 3 legend): 2 μg/mL both sides, 50 mV, 0.1 M KCl, 5 mM Tris-HCl pH 7.5
# [3] = Thermal melting followed by CD at 222 nm; assay type: physicochemical; settings: CD 222 nm, 0.5 °C/min, 1 cm cuvette, pH 7.0
# [4] = reference for disordered protein in CD222/CD208 plot; cited from earlier work
# [5] = target: T1, TolC trimer (E. coli, UniProt P02930 23-493); experiment: occlusion of TolC ion channels in planar bilayer lipid membranes
# T1 sequence (looked up): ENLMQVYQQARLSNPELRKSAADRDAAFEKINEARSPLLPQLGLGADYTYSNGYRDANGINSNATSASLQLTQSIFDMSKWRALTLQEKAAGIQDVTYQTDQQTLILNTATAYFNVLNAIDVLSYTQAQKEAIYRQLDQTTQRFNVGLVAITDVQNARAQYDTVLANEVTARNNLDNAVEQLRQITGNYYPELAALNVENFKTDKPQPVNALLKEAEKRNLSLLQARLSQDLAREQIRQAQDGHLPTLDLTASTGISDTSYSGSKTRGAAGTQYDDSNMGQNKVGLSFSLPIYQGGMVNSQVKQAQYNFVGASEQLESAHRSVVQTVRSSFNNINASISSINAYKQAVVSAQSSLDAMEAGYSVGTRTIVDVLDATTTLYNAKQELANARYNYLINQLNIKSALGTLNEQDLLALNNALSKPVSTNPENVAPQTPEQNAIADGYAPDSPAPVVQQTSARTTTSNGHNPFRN
# [6] = tested on: TolC trimer; experiment: Co-elution of T-domain peptides with TolC on Superdex 200 size-exclusion column; assay type: binding, Escherichia coli; settings: TolC:peptide 1:2, Superdex 200; peak shift and SDS–PAGE
# [7] = target: T1, TolC trimer; experiment: SEC
# [8] = target: T1, TolC trimer; experiment: SEC; remark: listed apart in the source
# [9] = target: T1, TolC trimer; experiment: precipitation upon mixing
molecule,measurement,setting,value
"1–40 ^c: colicin E1 T-domain peptide, residues 1–40 (METAVAYYKDGVPYDDKGQVIITLLNGTPDGSGSGGGGGK; UniProt P02978 1-40, looked up, fragment)","secondary structure, in words",[1],predominately disordered
same,"no. of residues, helix",[1],0 residues
same,"no. of residues, unordered",[1],40 residues
"81–140 ^b: colicin E1 T-domain peptide, residues 81–140 (AKAKANRDALTQRLKDIVNEALRHNASRTPSATELAHANNAAMQAEDERLRLAKAEEKAR; UniProt P02978 81-140, looked up, fragment)","no. of residues, unordered",[1],25 residues
"100–140 ^b: colicin E1 T-domain peptide, residues 100–140 (EALRHNASRTPSATELAHANNAAMQAEDERLRLAKAEEKAR; UniProt P02978 100-140, looked up, fragment)",occlusion of TolC channels (Figure 3 legend),[2],Occlusion of TolC channels
same,effect on transmembrane current through TolC channels,[2]; 2 μg/mL on both sides of BLM,significant and irreversible decrease in transmembrane current
same,"no. of residues, unordered",[1],15 residues
"139–190 ^b: colicin E1 T-domain peptide, residues 139–190 (ARKEAEAAEKAFQEAEQRRKEIEREKAETERQLKLAEAEEKRLAALSEEAKA; UniProt P02978 139-190, looked up, fragment)","no. of residues, unordered",[1],7 residues
"141–190 ^c: colicin E1 T-domain peptide, residues 141–190 (KEAEAAEKAFQEAEQRRKEIEREKAETERQLKLAEAEEKRLAALSEEAKA)","no. of residues, unordered",[1],5 residues
same,cooperativity of thermal melting,[3],not cooperative
α-synuclein,helical content,[4],0%
B1,Kd,[5],~100 nM
same,concentration at which TolC channels were efficiently occluded,"[2]; I = 0.1 M, pH 7.5",≥ 0.2 µM
same,concentration at which TolC channels were not occluded,"[2]; I = 0.1 M, pH 7.5",40 nM
same,"co-elution / interaction with TolC, in words",[6],severe protein precipitation
same,"no. of residues, helix",[1],54 ± 4 residues
same,"no. of residues, unordered",[1],30 residues
B2,binding result,[7],binds
same,"co-elution / interaction with TolC, in words",[6],Co-elution was detected
same,"no. of residues, helix",[1],46 ± 12 residues
same,"no. of residues, unordered",[1],74 residues
B3,"no. of residues, helix",[1],29 ± 2 residues
same,"no. of residues, unordered",[1],51 residues
B4,helical content,[1]; reference for disordered protein in CD222/CD208 plot,0%
B5,occlusion of TolC channels (Figure 3 legend),[2],Lack of TolC occlusion
same,effect on transmembrane current through TolC channels,[2]; 10 μg/mL,did not decrease the transmembrane current
same,"no. of residues, helix",[1],30 ± 4 residues
same,"no. of residues, unordered",[1],~70 residues
same,increase in helical residues on lengthening the peptide,"[1]; versus next shorter peptide (1–81, 1–100, 1–120, 1–140, 1–190 series)",17 residues
B6,"secondary structure, in words",[1],low helical content
same,"secondary structure, in words",[1]; listed as T1–81,predominately disordered
same,"no. of residues, helix",[1],13 ± 2 residues
same,"no. of residues, unordered",[1],~70 residues
B7,binding result,[8],binds
B8,"no. of residues, unordered",[1],12 residues
same,cooperativity of thermal melting,[3],not cooperative
B9,"no. of residues, helix",[1],65 ± 5 residues
same,"no. of residues, unordered",[1],35 residues
B10,"co-elution / interaction with TolC, in words",[6],severe protein precipitation
same,binding result,[9],binds
same,"no. of residues, helix",[1],44 ± 4 residues
same,"no. of residues, unordered",[1],20 residues
B11,"no. of residues, unordered",[1],44 residues
B12,binding result,[7],binds
